Numbering of substitutions follows the chain as printed.
Tests used:
Test in all cases: cell-based or functional assay
[1] = molecular target: HIV Env of isolate ZM233.6 (HIV)
[2] = molecular target: Env of HIV isolate CNE56 (clade AE) (HIV)
[3] = molecular target: HIV Env of isolate ZM215.8 (HIV)
[4] = molecular target: Env of HIV isolate 3016.v5.c45 (clade D) (HIV)
[5] = molecular target: HIV Env of isolate X1632.S2.B10 (HIV)
[6] = molecular target: Env of HIV isolate ZM55.28a (clade C) (HIV)
[7] = molecular target: Env of HIV isolate Q842.d12 (clade A) (HIV)
[8] = molecular target: Env of HIV isolate TH023.6 (clade AE) (HIV)
[9] = molecular target: HIV Env of isolate 16055-2.3 (HIV)
[10] = molecular target: Env of HIV isolate MN.3 (clade B) (HIV)
[11] = molecular target: Env of HIV isolate 620345.c1 (clade AE) (HIV)
[12] = molecular target: HIV Env of isolate CNE19 (HIV)
[13] = molecular target: Env of HIV isolate 0260.v5.c36 (clade A) (HIV)
[14] = molecular target: HIV Env of isolate CNE20 (HIV)
[15] = molecular target: Env of HIV isolate 3873.v1.c24 (clade C) (HIV)
[16] = molecular target: Env of HIV isolate CNE4 (clade B) (HIV)
[17] = molecular target: Env of HIV isolate AC10.29 (clade B) (HIV)
[18] = molecular target: Env of HIV isolate CNE12 (clade B) (HIV)
[19] = molecular target: Env of HIV isolate 5768.04 (clade B) (HIV)
[20] = molecular target: Env of HIV isolate THRO.18 (clade B) (HIV)
[21] = molecular target: HIV Env of isolate X1254.c3 (HIV)
[22] = molecular target: Env of HIV isolate ZM215.8 (clade C) (HIV)
[23] = molecular target: HIV Env of isolate TZBD.02 (HIV)
[24] = molecular target: Env of HIV isolate Q461.e2 (clade AD) (HIV)
[25] = molecular target: Env of HIV isolate DU172.17 (clade C) (HIV)
[26] = molecular target: Env of HIV isolate 6095.v1.c10 (clade ACD) (HIV)
[27] = molecular target: Env of HIV isolate CNE58 (clade C in Table 7) (HIV)
[28] = molecular target: HIV Env of isolate UG024.2 (HIV)
[29] = molecular target: HIV Env of isolate 3637.v5.c3 (HIV)
[30] = molecular target: Env of HIV isolate HT593.1 (clade B) (HIV)
[31] = molecular target: Env of HIV isolate MS208.A1 (clade A) (HIV)
[32] = molecular target: Env of HIV isolate CNE55 (clade AE) (HIV)
[33] = molecular target: HIV Env of isolate 6322.v4.c1 (HIV)
[34] = molecular target: Env of HIV isolate Q259.17 (clade A) (HIV)
[35] = molecular target: HIV Env of isolate 6838.v1.c35 (HIV)
[36] = molecular target: HIV Env of isolate 3168.v4.c10 (HIV)
[37] = molecular target: Env of HIV isolate CH070.1 (clade BC) (HIV)
[38] = molecular target: Env of HIV isolate 6322.v4.c1 (clade C) (HIV)
[39] = molecular target: Env of HIV isolate 928-28 (clade AG) (HIV)
[40] = molecular target: Env of HIV isolate DU151.02 (clade C) (HIV)
[41] = molecular target: HIV Env of isolate ZM55.28a (HIV)
[42] = molecular target: Env of HIV isolate BJOX002000.03.2 (clade BC) (HIV)
[43] = molecular target: HIV Env of isolate CE703010217.B6 (HIV)
[44] = molecular target: Env of HIV isolate ADA.DG (clade B) (HIV)
[45] = molecular target: Env of HIV isolate T280-5 (clade AG) (HIV)
[46] = molecular target: Env of HIV isolate 398-F1.F6.20 (clade A) (HIV)
[47] = molecular target: Env of HIV isolate UG024.2 (clade D) (HIV)
[48] = molecular target: Env of HIV isolate TRO.11 (clade B) (HIV)
[49] = molecular target: Env of HIV isolate 3718.v3.c11 (clade A) (HIV)
[50] = molecular target: Env of HIV isolate A07412M1.vrc12 (clade D) (HIV)

B1: ePGT121.18 (ePGT121.18.H1 VH and ePGT121.17.L1 VL) (antibody, V domains shown)
VH: QMQLQESGPGLVKPGETLSLTCSVSGASISSSYWSWLRETPGKGLEWIGYTHHSGDTNYAPSLKSRVHLGLHPSKNQVSLSLTSVTAADTAVYYCARTLHGRRIYGVVAFNEYYTYFYWPTWGKGTQVTVSS
VL: SDISVAPGETVRITCGGESIGSRAVQWYQHRPGQAPRLIIYNNQDRPPGIPERFSGSPDIDFGTTATLTISNVEAGDEATYYCHIWDSRRPTNWELGPGTTLTVL
Binder B1 has an IC80, pseudovirus neutralization (M1) [1] of 0.024 mg/L, an IC80, pseudovirus neutralization (M2) [1] of 0.024 mg/L and an IC50, pseudovirus neutralization [2] of over 50 mg/L. The IC80, pseudovirus neutralization (M1) [3] was 0.023 mg/L, the IC80, pseudovirus neutralization (M2) [3] was 0.026 mg/L and the IC50, pseudovirus neutralization [4] was over 50 mg/L. For the same binder, the IC80, pseudovirus neutralization (M1) [5] was over 50 mg/L, the IC80, pseudovirus neutralization (M2) [5] was over 50 mg/L and the IC50, pseudovirus neutralization [6] was 0.005 mg/L. For the same binder, the IC50, pseudovirus neutralization [7] was 0.002 mg/L, the IC50, pseudovirus neutralization [8] was over 50 mg/L and the IC80, pseudovirus neutralization (M1) [9] was 0.089 mg/L. It also gave an IC80, pseudovirus neutralization (M2) [9] of 0.059 mg/L, an IC50, pseudovirus neutralization [10] of 0.002 mg/L and an IC50, pseudovirus neutralization [11] of over 50 mg/L. It also gave an IC80, pseudovirus neutralization (M1) [12] of 0.006 mg/L, an IC80, pseudovirus neutralization (M2) [12] of 0.004 mg/L and an IC50, pseudovirus neutralization [13] of 0.002 mg/L. The IC80, pseudovirus neutralization (M1) [14] was 0.003 mg/L, the IC80, pseudovirus neutralization (M2) [14] was 0.004 mg/L and the IC50, pseudovirus neutralization [15] was 0.003 mg/L. It also gave an IC50, pseudovirus neutralization [16] of 0.002 mg/L, an IC50, pseudovirus neutralization [17] of 0.001 mg/L and an IC50, pseudovirus neutralization [18] of 0.002 mg/L. The IC50, pseudovirus neutralization [19] was 0.004 mg/L, the IC50, pseudovirus neutralization [20] was over 50 mg/L and the IC80, pseudovirus neutralization (M1) [21] was 0.005 mg/L. The IC80, pseudovirus neutralization (M2) [21] was 0.006 mg/L, the IC50, pseudovirus neutralization [22] was 0.006 mg/L and the IC80, pseudovirus neutralization (M1) [23] was 0.004 mg/L. It also gave an IC80, pseudovirus neutralization (M2) [23] of 0.006 mg/L, an IC50, pseudovirus neutralization [24] of over 50 mg/L and an IC50, pseudovirus neutralization [25] of 0.003 mg/L. For the same binder, the IC50, pseudovirus neutralization [26] was 0.006 mg/L, the IC50, pseudovirus neutralization [27] was 0.016 mg/L and the IC80, pseudovirus neutralization (M1) [28] was over 50 mg/L. The IC80, pseudovirus neutralization (M2) [28] was over 50 mg/L, the IC80, pseudovirus neutralization (M1) [29] was over 50 mg/L and the IC80, pseudovirus neutralization (M2) [29] was over 50 mg/L. The IC50, pseudovirus neutralization [30] was 0.003 mg/L, the IC50, pseudovirus neutralization [31] was over 50 mg/L and the IC50, pseudovirus neutralization [32] was over 50 mg/L. It also gave an IC80, pseudovirus neutralization (M1) [33] of over 50 mg/L, an IC80, pseudovirus neutralization (M2) [33] of over 50 mg/L and an IC50, pseudovirus neutralization [34] of over 50 mg/L. For the same binder, the IC80, pseudovirus neutralization (M1) [35] was 2.59 mg/L, the IC80, pseudovirus neutralization (M2) [35] was 13.4 mg/L and the IC80, pseudovirus neutralization (M1) [36] was 0.034 mg/L. The IC80, pseudovirus neutralization (M2) [36] was 0.045 mg/L, the IC50, pseudovirus neutralization [37] was 0.0008 mg/L and the IC50, pseudovirus neutralization [38] was over 50 mg/L. It also gave an IC50, pseudovirus neutralization [39] of 0.076 mg/L, an IC50, pseudovirus neutralization [40] of 0.001 mg/L and an IC80, pseudovirus neutralization (M1) [41] of 0.014 mg/L. The IC80, pseudovirus neutralization (M2) [41] was 0.014 mg/L, the IC50, pseudovirus neutralization [42] was 0.002 mg/L and the IC80, pseudovirus neutralization (M1) [43] was 0.008 mg/L. The IC80, pseudovirus neutralization (M2) [43] was 0.008 mg/L, the IC50, pseudovirus neutralization [44] was 0.002 mg/L and the IC50, pseudovirus neutralization [45] was 0.002 mg/L. The IC50, pseudovirus neutralization [46] was 0.003 mg/L, the IC50, pseudovirus neutralization [47] was 2.36 mg/L and the IC50, pseudovirus neutralization [48] was 0.002 mg/L. For the same binder, the IC50, pseudovirus neutralization [49] was 0.267 mg/L and the IC50, pseudovirus neutralization [50] was 0.003 mg/L.

B2: ePGT121.15.H2.L1 (antibody, V domains shown)
VH: B1 VH with Y113W, Y114F, P120E, T121V
VL: B1 VL with T14S, P32A, R37K, S71T, E95V, L96F, P98G
Binder B2 has a neutralization (Table 6 value) [12] of 0.000602 and a neutralization (Table 6 value) [14] of 0.000538.

B3: ePGT121.18.17 (ePGT121.18.H17 VH and ePGT121.17.L1 VL) (antibody, V domains shown)
VH: B1 VH with H68T, L69I, H72D
VL: B1 VL
Work on B3 yielded an IC80, pseudovirus neutralization [1] of 0.065 mg/L, an IC50, pseudovirus neutralization [2] of over 50 mg/L and an IC80, pseudovirus neutralization [3] of 0.048 mg/L. For the same binder, the IC50, pseudovirus neutralization [4] was over 50 mg/L, the IC80, pseudovirus neutralization [5] was over 50 mg/L and the IC50, pseudovirus neutralization [6] was 0.012 mg/L. The IC50, pseudovirus neutralization [7] was 0.007 mg/L, the IC50, pseudovirus neutralization [8] was over 50 mg/L and the IC80, pseudovirus neutralization [9] was 0.207 mg/L. It also gave an IC50, pseudovirus neutralization [10] of 0.004 mg/L, an IC50, pseudovirus neutralization [11] of over 50 mg/L and an IC80, pseudovirus neutralization [12] of 0.014 mg/L. For the same binder, the IC50, pseudovirus neutralization [13] was 0.009 mg/L, the IC80, pseudovirus neutralization [14] was 0.005 mg/L and the IC50, pseudovirus neutralization [15] was 0.011 mg/L. For the same binder, the IC50, pseudovirus neutralization [16] was 0.008 mg/L, the IC50, pseudovirus neutralization [17] was 0.004 mg/L and the IC50, pseudovirus neutralization [18] was 0.004 mg/L. The IC50, pseudovirus neutralization [19] was 0.029 mg/L, the IC50, pseudovirus neutralization [20] was over 50 mg/L and the IC80, pseudovirus neutralization [21] was 0.015 mg/L. The IC50, pseudovirus neutralization [22] was 0.016 mg/L, the IC80, pseudovirus neutralization [23] was 0.013 mg/L and the IC50, pseudovirus neutralization [24] was over 50 mg/L. For the same binder, the IC50, pseudovirus neutralization [25] was 0.007 mg/L, the IC50, pseudovirus neutralization [26] was 0.045 mg/L and the IC50, pseudovirus neutralization [27] was 0.053 mg/L. It also gave an IC80, pseudovirus neutralization [28] of over 50 mg/L, an IC80, pseudovirus neutralization [29] of over 50 mg/L and an IC50, pseudovirus neutralization [30] of 0.014 mg/L. For the same binder, the IC50, pseudovirus neutralization [31] was over 50 mg/L, the IC50, pseudovirus neutralization [32] was over 50 mg/L and the IC80, pseudovirus neutralization [33] was over 50 mg/L. For the same binder, the IC50, pseudovirus neutralization [34] was over 50 mg/L, the IC80, pseudovirus neutralization [35] was 4.34 mg/L and the IC80, pseudovirus neutralization [36] was 0.171 mg/L. The IC50, pseudovirus neutralization [37] was 0.003 mg/L, the IC50, pseudovirus neutralization [38] was over 50 mg/L and the IC50, pseudovirus neutralization [39] was 0.462 mg/L. The IC50, pseudovirus neutralization [40] was 0.003 mg/L, the IC80, pseudovirus neutralization [41] was 0.029 mg/L and the IC50, pseudovirus neutralization [42] was 0.004 mg/L. It also gave an IC80, pseudovirus neutralization [43] of 0.016 mg/L, an IC50, pseudovirus neutralization [44] of 0.005 mg/L and an IC50, pseudovirus neutralization [45] of 0.006 mg/L. It also gave an IC50, pseudovirus neutralization [46] of 0.005 mg/L, an IC50, pseudovirus neutralization [47] of 0.429 mg/L and an IC50, pseudovirus neutralization [48] of 0.005 mg/L. It also gave an IC50, pseudovirus neutralization [49] of 0.957 mg/L and an IC50, pseudovirus neutralization [50] of 0.004 mg/L.

Reference: US20210292396A1
